From article PMC10963238, “The bacterial division protein MinDE has an independent function in flagellation” (The Journal of Biological Chemistry, 2024) come the findings set out here.

This assay addresses T1, His-tagged cytoplasmic part of AtoS (232–608aa, cyto-AtoS) (Escherichia coli K-12, UniProt Q06067 232-608).
T1 construct: AtoS of Escherichia coli K-12, cytoplasmic part, residues 232-608; also called His-cyto-AtoS; His-AtoS; source: E. coli BL21 [DE3], purified (Ni2+-NTA agarose)
T1 sequence (looked up): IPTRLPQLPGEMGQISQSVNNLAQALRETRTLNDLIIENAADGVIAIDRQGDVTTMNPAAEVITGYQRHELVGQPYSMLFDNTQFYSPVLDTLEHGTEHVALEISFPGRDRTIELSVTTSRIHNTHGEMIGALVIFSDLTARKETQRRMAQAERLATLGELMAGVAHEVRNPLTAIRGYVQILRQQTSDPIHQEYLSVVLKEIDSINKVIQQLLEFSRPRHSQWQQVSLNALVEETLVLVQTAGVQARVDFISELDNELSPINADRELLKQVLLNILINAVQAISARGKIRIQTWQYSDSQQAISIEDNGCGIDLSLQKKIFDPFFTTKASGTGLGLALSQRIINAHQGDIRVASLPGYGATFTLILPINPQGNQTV
As to the kind of experiment: pull-down; GST-MinD (5 μM) with His-cyto-AtoS (5 μM) in 50 mM Hepes pH 7.4, 150 mM KCl, room temperature 30 min; His-cyto-AtoS held on HisPure cobalt resin, 1 h at 4 °C; washed with 20 mM imidazole, eluted with 300 mM imidazole; Western blot with anti-GST and anti-His. The following applies: both partners purified. (In general: A western blot detects proteins with antibodies after separation by electrophoresis.)

B1: GST-MinD (natural protein, Escherichia coli K-12, UniProt P0AEZ3 1-270, looked up)
chain: MARIIVVTSGKGGVGKTTSSAAIATGLAQKGKKTVVIDFDIGLRNLDLIMGCERRVVYDFVNVIQGDATLNQALIKDKRTENLYILPASQTRDKDALTREGVAKVLDDLKAMDFEFIVCDSPAGIETGALMALYFADEAIITTNPEVSSVRDSDRILGILASKSRRAENGEEPIKEHLLLTRYNPGRVSRGDMLSMEDVLEILRIKLVGVIPEDQSVLRASNQGEPVILDINADAGKAYADTVERLLGEERPFRFIEEEKKGFLKRLFGG
notes: MinD of Escherichia coli K-12; ORF amplified from E. coli K-12 genomic DNA; also called GST-tagged MinD; source: dialyzed against 50 mM Hepes pH 7.4, 150 mM KCl, 10% glycerol
As for B1, the binding result was “binds”.
